Literature values as cited in paper PMC4344624.

Target: VPg (Turnip mosaic virus) (UniProt P89509)
UniProt P89509, sequence (P89509 1925-2116): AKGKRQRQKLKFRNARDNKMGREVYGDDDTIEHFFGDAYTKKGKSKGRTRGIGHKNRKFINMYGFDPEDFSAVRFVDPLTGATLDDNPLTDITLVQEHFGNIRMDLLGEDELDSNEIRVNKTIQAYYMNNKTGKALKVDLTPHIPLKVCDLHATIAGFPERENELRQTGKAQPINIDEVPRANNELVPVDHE

Pokeweed antiviral protein (from UniProt P10297)
Kd: 29 nM
